Measurements as given in IntAct's records for PubMed 15143060.

B1: ADP-ribosylation factor-binding protein GGA1 (Homo sapiens), Q9UJY5 (parent)
chain: MEPAMEPETLEARINRATNPLNKELDWASINGFCEQLNEDFEGPPLATRLLAHKIQSPQEWEAIQALTVLETCMKSCGKRFHDEVGKFRFLNELIKVVSPKYLGSRTSEKVKNKILELLYSWTVGLPEEVKIAEAYQMLKKQGIVKSDPKLPDDTTFPLPPPRPKNVIFEDEEKSKMLARLLKSSHPEDLRAANKLIKEMVQEDQKRMEKISKRVNAIEEVNNNVKLLTEMVMSHSQGGAAAGSSEDLMKELYQRCERMRPTLFRLASDTEDNDEALAEILQANDNLTQVINLYKQLVRGEEVNGDATAGSIPGSTSALLDLSGLDLPPAGTTYPAMPTRPGEQASPEQPSASVSLLDDELMSLGLSDPTPPSGPSLDGTGWNSFQSSDATEPPAPALAQAPSMESRPPAQTSLPASSGLDDLDLLGKTLLQQSLPPESQQVRWEKQQPTPRLTLRDLQNKSSSCSSPSSSATSLLHTVSPEPPRPPQQPVPTELSLASITVPLESIKPSNILPVTVYDQHGFRILFHFARDPLPGRSDVLVVVVSMLSTAPQPIRNIVFQSAVPKVMKVKLQPPSGTELPAFNPIVHPSAITQVLLLANPQKEKVRLRYKLTFTMGDQTYNEMGDVDQFPPPETWGSL

Variants of: B1
Details: with arf1_human ARF1, P84077
Chain of arf1_human ARF1, P84077 (P84077 whole entry): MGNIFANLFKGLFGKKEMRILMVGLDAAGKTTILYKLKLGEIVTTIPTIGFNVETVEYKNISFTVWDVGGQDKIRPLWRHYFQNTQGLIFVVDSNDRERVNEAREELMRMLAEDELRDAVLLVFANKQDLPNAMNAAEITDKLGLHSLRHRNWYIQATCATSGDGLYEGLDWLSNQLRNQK

| effect of a mutation on the interaction | Variant |
| --- | --- |
| decreasing interaction | L182A;N194A;I197A |
